# Data from patent US20070196350A1, “Compositions and Methods for Effecting Controlled Posterior Vitreous Detachment” (priority 2006, published 2007).
# Several values for one entry are separate records, joined by “and”; a condition that tells them apart may be missing. Equal entries are not always repeated.
# System: eyes from Dutch Belted Rabbits (vitreoretinal interface)
# Test: Ex vivo SEM scoring of residual vitreous (posterior vitreous detachment) after intravitreal injection in rabbit eyes
# Set-up: key to Score of vitreo-retinal specimen, IN (Infra-Nasal Area) / Score of vitreo-retinal specimen, INL (Infra-Nasal Inferior Area) / Score of vitreo-retinal specimen, IC (Infra-Central Area) / Score of vitreo-retinal specimen, ICL (Infra-Central Lower Area) / Score of vitreo-retinal specimen, IT (Infra-Temporal Area) / Score of vitreo-retinal specimen, ITL (Infra-Temporal Lower Area): Grade 0 - extensive amount of residual vitreous; Grade 1 - moderate amount of residual vitreous; Grade 2 - mild amount of residual vitreous; Grade 3 - Inner retina visible through sparse collagen fibrils; Grade 4 - None to trace collagen fibrils covering inner retina
# Method: The purpose of this ex vivo study was to compare the efficacy of 200 μg human-derived plasmin (Bausch & Lomb Incorporated's compound name “BOL-303209-X”) alone and in combination with triamcinolone acetonide (“TA,” a glucocorticoid anti-inflammatory medicament) on PVD in Dutch Belted Rabbits using scanning electron microscopy. This study was designed to use intravitreal injection of TA to enhance clinical observations for clear identification of PVD, to minimize possible inflammatory responses, and to assess whether improved efficacy could be achieved by the combined use of BOL-303209-X and TA.
# Twelve (12) normal eyes from six (6) Dutch Belted Rabbits (both male and female) were used. All right eyes from 6 rabbits were injected with BOL-303209-X plus vehicle (Group 1, n=6 eyes) and all left eyes were injected with BOL-303209-X plus TA (Group 2, n=3, 2 mg TA/eye; Group 3, n=3, 4 mg TA/eye). BOL-303209-X was freshly prepared and kept on ice before use.
# On the day of operation, rabbits were anesthetized, eyes disinfected and pupils dilated 15-20 minutes prior to injection. Each rabbit received two intravitreal injections. In Groups 1, 2, and 3, an initial 50-μl injection of BOL-303209-X at a dose of 200 μg per eye in a formulation of 5 mM epsilon-aminocaproic acid (“EACA”)/0.05% Tween 80/0.9% saline was given intravitreally in both the right and left eyes. In Group 1 (Control) a second 50-μl injection of formulation vehicle (0.05% Tween 80/0.05% hydroxypropyl methylcellulose (HPMC)/0.9% saline) was delivered in the right eyes 5 minutes after the first injection. In Groups 2 and 3, a formulation containing TA at a dose of either 2 mg (Group 2) or 4 mg (Group 3) was injected into the left eyes in the same way.
# Eyes were examined with a slit-lamp biomicroscope assisted with a Volk Lens at 4 days prior to injection for baseline documentation. To evaluate the efficacy of BOL-303209-X, all eyes were directly observed under a surgical microscope for 5 minutes after injection for possible changes in the vitreo-retina. The injected eyes were followed up at 7 and 14 days after injection. Attention was paid particularly to the vitreoretinal interface for signs of PVD and to the retina for signs of toxicity during slit-lamp examination.
# Fourteen days after injection the in-life phase of the study was terminated, the rabbits were euthanized by over dose of pentobarbital, their eyes enucleated and fixed in Karnovsky's solution for at least 24 hours. The fixed eyes were processed further for SEM. The posterior pole of each eye was examined. Micrographs at magnifications ranging from 100-2,500× of each specimen or up to 10,000× in some cases were examined to assess the extent of posterior vitreous detachment. The amount of residual vitreous was scored on a scale of 0-4 with a score of 4 representing complete removal of vitreous from the inner retina according to a standard protocol.
# After enucleation, the eyes were trimmed of external muscle, fat, and connective tissue, and cut using a razor blade about 3 mm behind the limbus to facilitate penetration of fixative. The eyes were placed in ice-cold fixative consisting of 2% formaldehyde (from paraformaldehyde), 2.5% glutaraldehyde, in 0.1 phosphate buffer, with 0.1 M sucrose and 0.5 mM CaCl2 added, pH 7.2. Each eye was immersed in approximately 40 ml fixative. After one hour, the fixative was exchanged with fresh fixative and the eyes were transported to B&L and stored refrigerated in fixative.
# Tissue specimen that included sclera, choroid, retina with the optic nerve (approximately 1 cm in diameter) were surgically removed from each eye. These were dehydrated though a graded ethanol series (30%, 50%, 70%, 85%, 95%, 100%) for thirty minutes per dilution. Dehydrated samples were dried to the critical point (Samdri-PVT-3B, Tousimis, Rockville, Md.) and mounted on aluminum SEM pucks with colloidal graphite (Ted Pella, Inc, Redding, Calif.). […]
# [1] = Group 1: 200 μg BOL-303209-X per eye + vehicle, SEM day 14, scale 0-4, one value per eye
molecule,measurement,setting,value
"BOL-303209-X: human-derived plasmin (Bausch & Lomb Incorporated's compound name “BOL-303209-X”) (protein, UniProt P00747 20-580; P00747 581-810, looked up, plasmin plasma-derived) Plasmin heavy chain A: EPLDDYVNTQGASLFSVTKKQLGAGSIEECAAKCEEDEEFTCRAFQYHSKEQQCVIMAENRKSSIIIRMRDVVLFEKKVYLSECKTGNGKNYRGTMSKTKNGITCQKWSSTSPHRPRFSPATHPSEGLEENYCRNPDNDPQGPWCYTTDPEKRYDYCDILECEEECMHCSGENYDGKISKTMSGLECQAWDSQSPHAHGYIPSKFPNKNLKKNYCRNPDRELRPWCFTTDPNKRWELCDIPRCTTPPPSSGPTYQCLKGTGENYRGNVAVTVSGHTCQHWSAQTPHTHNRTPENFPCKNLDENYCRNPDGKRAPWCHTTNSQVRWEYCKIPSCDSSPVSTEQLAPTAPPELTPVVQDCYHGDGQSYRGTSSTTTTGKKCQSWSSMTPHRHQKTPENYPNAGLTMNYCRNPDADKGPWCFTTDPSVRWEYCNLKKCSGTEASVVAPPPVVLLPDVETPSEEDCMFGNGKGYRGKRATTVTGTPCQDWAAQEPHRHSIFTPETNPRAGLEKNYCRNPDGDVGGPWCYTTNPRKLYDYCDVPQCAAPSFDCGKPQVEPKKCPGR Plasmin light chain B: VVGGCVAHPHSWPWQVSLRTRFGMHFCGGTLISPEWVLTAAHCLEKSPRPSSYKVILGAHQEVNLEPHVQEIEVSRLFLEPTRKDIALLKLSSPAVITDKVIPACLPSPNYVVADRTECFITGWGETQGTFGAGLLKEAQLPVIENKVCNRYEFLNGRVQSTELCAGHLAGGTDSCQGDSGGPLVCFEKDKYILQGVTSWGLGCARPNKPGVYVRVSRFVTWIEGVMRNN","n ≧ 3, number of eyes of the group with mean score of 3 or higher",Group 1 (n=6 eyes): 200 μg BOL-303209-X per eye + vehicle,2
same,Mean score of the group,"Group 1 (n=6 eyes): 200 μg BOL-303209-X per eye + vehicle, SEM day 14, scale 0-4",2.6
same,"Mean score of 6 inferior fields, per eye",[1],3.2 and 2.8 and 2.5 and 1.7 and 3.0
same,"Score of vitreo-retinal specimen, IC (Infra-Central Area)",[1],4 and 3
same,"Score of vitreo-retinal specimen, ICL (Infra-Central Lower Area)",[1],3 and 2 and 1
same,"Score of vitreo-retinal specimen, INL (Infra-Nasal Inferior Area)",[1],3 and 1
same,"Score of vitreo-retinal specimen, IT (Infra-Temporal Area)",[1],3 and 2
same,"Score of vitreo-retinal specimen, ITL (Infra-Temporal Lower Area)",[1],3 and 2 and 1
same,"n ≧ 3 (eye with mean score of 3 or higher), per eye","Group 1: 200 μg BOL-303209-X per eye + vehicle, per-eye count",1
same,"Score of vitreo-retinal specimen, IN (Infra-Nasal Area)","Group 1: 200 μg BOL-303209-X per eye intravitreal + second injection of vehicle, SEM 14 days after injection, scale 0-4, one value per eye",3 and 2
